Data from paper PMC9243137, “Structural and electrophysiological basis for the modulation of KCNQ1 channel currents by ML277” (Nature Communications, 2022).

Assays:
Calmodulin = target: T1, Calmodulin (UniProt P0DP23 1-149); assay: cryo-EM structure; xKCNQ1(67-610) co-expressed with CaM in tsA201 cells, complex purified in DDM/CHS, 0.5 mM CaCl2; grids without and with 100 uM ML277; C4 symmetry imposed; conditions: both partners purified
T1 construct: Calmodulin; DNA a gift of the Wayne Chen lab; model built from residues 10 to 146; Sample held 0.5 mM CaCl2; also called CaM; Ca2+/CaM; source: tsA201 cells, co-transfected with xKCNQ1 (pcDNA3), co-purified with xKCNQ1

[1] = target: the molecule itself; assay: as above

B1: Xenopus laevis KCNQ1, residues 67-610 (truncated, biochemically stable form) (domain or fragment, UniProt P70057 67-610, looked up)
chain: ATDPPRPTINLDPRVSIYSGRRPLLSRTNIQGRVYNFLERPTGWKCFVYHFTVFLIVLICLIFSVLSTIQQYNNLATETLFWMEIVLVVFFGAEYVVRLWSAGCRSKYVGVWGRLRFARKPISVIDLIVVVASVIVLCVGSNGQVFATSAIRGIRFLQILRMLHVDRQGGTWRLLGSVVFIHRQELITTLYIGFLGLIFSSYFVYLAEKDAIDSSGEYQFGSYADALWWGVVTVTTIGYGDKVPQTWIGKTIASCFSVFAISFFALPAGILGSGFALKVQQKQRQKHFNRQIPAAASLIQTAWRCYAAENPDSATWKIYIRKQSRNHHLMSPSPKPKKSAMVKKKKIRTERDEGSTDKMLNIPHITYDHVADDRKNDGYSVESYENTVRKPFGFLDPSTGPFIRTSSFTDDLDMEGDTLLTPITHISELKEHHRAAIKVIRRMQYFVAKKKFQQARKPYDVRDVIEQYSQGHLNLMVRIKELQRRLDQSLGKPSLFLSVSDKVKDKGINTIGSRLNRVEDKVTQMDHKLNLITDMLHHLLTNQQ
notes: KCNQ1 (Kv7.1) of Xenopus laevis, NP_001116347.1, residues 67-610; N- and C-termini truncated as in Sun and MacKinnon 2017; model built from residues 95 to 556 (67-94, 206-214, 385-496 disordered); Human KCNQ1 numbering is +10 against xKCNQ1; A preScission protease site stood between the channel and the C-terminal GFP-6xHis tag; residues of the site may be left after cleavage; Four subunits (C4 …)
Does B1 bind (Calmodulin)?
Result: binds

Does B1 bind [1]?
Result: binds
